Molecular target: Trop-2 (on Trop-2-expressing HCC1806 cells) (human) (UniProt P09758)
Assay: cell-based or functional assay

Chain of UniProt P09758 (P09758 27-323): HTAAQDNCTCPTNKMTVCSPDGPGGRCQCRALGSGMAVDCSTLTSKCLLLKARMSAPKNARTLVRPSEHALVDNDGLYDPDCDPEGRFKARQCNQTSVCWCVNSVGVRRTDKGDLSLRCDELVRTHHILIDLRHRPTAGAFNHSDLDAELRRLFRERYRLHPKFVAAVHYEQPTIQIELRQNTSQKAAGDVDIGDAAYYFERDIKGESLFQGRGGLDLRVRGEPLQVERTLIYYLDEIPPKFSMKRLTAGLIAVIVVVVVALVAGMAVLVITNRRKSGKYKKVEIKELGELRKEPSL

“hRS7-CAR, a human Trop-2-targeting CAR (SPCD8α-VKhRS7-(GGGGS)3-VHhRS7-HingeCD8α-TMCD8α-ICD4-1BB-ICDCD3ζ) (receptor)” was tested, and the Cytotoxicity by flow cytometry (percent of HCC1806 cells killed, E:T 3:1, 3 h) was 42% and the Specific lysis of HCC1806 cells relative to mock-transfected NK-92MI (flow cytometry, E:T 3:1, 3 h) was 2 fold.

Reference: US20160361360A1
